Patent publication US20130136736A1 (Ablynx, published 2013)

Target: T1, human von Willebrand Factor (vWF) (human, UniProt P04275 764-2813)
T1 construct: Multimeric plasma protein; The species of the vWF on the BIACORE chip and ELISA plates is not restated there; also called vWF (Red Cross); human vWF
Assay: ELISA on coated vWF: supernatant of a 200 µg/ml nanobody solution heated for 1 h at RT to 90 °C, dilution series, OD 405 nm

B1: 12A2H4 (VHH)
VHH: EVQLVESGGGLVQPGGSLRLSCAASGRTFSYNPMGWFRQAPGKGRELVAAISRTGGSTYYPDSVEGRFTISRDNAKRSVYLQMNSLRAEDTAVYYCAAAGVRAEDGRVRTLPSEYTFWGQGTQVTVSS
notes: Humanised 12A2, monovalent
  binding result: binds
